In publication PMC6945068:

Target: ^35S-labelled in vitro-translated Flag-B56γ (X. laevis PP2A regulatory B subunit B56γ)
Test: pull-down (amylose beads) with autoradiography quantification
Settings: 1 h, read off a plot

Sequence of MBP-fused Apc1-loop^500 wild type (residues 515-584 of Xenopus tropicalis Apc1) (Q08D52 entry or part of it, stated change not applied): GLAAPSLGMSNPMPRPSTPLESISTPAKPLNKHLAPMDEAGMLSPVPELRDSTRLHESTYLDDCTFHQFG

Which results are given for “MBP-fused Apc1-loop^500 wild type (residues 515-584 of Xenopus tropicalis Apc1) (from UniProt Q08D52) T532A; T539A; S558A”?
response (anaphase extract (Ana) supplemented with CycB∆167, 23°C, lane 16, parent: est. 3.3): 1.1 A.U.; response (interphase extract (Inter), 23°C, lane 12, parent: est. 0.95): 1.1 A.U.
